# Literature values in patent US9856460B2, “Nucleic acids encoding synthetic scaffolds and host cells genetically modified with the nucleic acids” (The Regents of the University of California, priority 2008, dated 2018).
# Target: T1, WASP GBD (Rattus norvegicus, UniProt O08816)
# T1 construct: 196-274
# Settings: partner WASP GBD; measured in trans
# T1 sequence (O08816 196-274): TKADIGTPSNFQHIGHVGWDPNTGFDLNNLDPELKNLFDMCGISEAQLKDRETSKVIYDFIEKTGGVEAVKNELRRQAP
substance,measurement,value
"GBD interaction ligand LVGALMHVMQKRSRAIHSSDEGEDQAGDEDED, SEQ ID NO: 30, partner WASP GBD [GBD lig.]",Kd,1 µM
